The values that follow are results of earlier work, collected in paper PMC3727077.

Where two headings read alike, the source gives them in different places.

Some targets named below: α2MFAST (Homo sapiens) (UniProt P01023); VEGFR2 (Homo sapiens) (UniProt P35968); VEGFR1 (Homo sapiens) (UniProt P17948); α2M (Homo sapiens) (UniProt P01023).
Series [1] addresses NRP1 (Homo sapiens) (UniProt O14786).
The target is the same in series [2]. The source holds these as a separate data set.

UniProt P35968, sequence (P35968 20-1356): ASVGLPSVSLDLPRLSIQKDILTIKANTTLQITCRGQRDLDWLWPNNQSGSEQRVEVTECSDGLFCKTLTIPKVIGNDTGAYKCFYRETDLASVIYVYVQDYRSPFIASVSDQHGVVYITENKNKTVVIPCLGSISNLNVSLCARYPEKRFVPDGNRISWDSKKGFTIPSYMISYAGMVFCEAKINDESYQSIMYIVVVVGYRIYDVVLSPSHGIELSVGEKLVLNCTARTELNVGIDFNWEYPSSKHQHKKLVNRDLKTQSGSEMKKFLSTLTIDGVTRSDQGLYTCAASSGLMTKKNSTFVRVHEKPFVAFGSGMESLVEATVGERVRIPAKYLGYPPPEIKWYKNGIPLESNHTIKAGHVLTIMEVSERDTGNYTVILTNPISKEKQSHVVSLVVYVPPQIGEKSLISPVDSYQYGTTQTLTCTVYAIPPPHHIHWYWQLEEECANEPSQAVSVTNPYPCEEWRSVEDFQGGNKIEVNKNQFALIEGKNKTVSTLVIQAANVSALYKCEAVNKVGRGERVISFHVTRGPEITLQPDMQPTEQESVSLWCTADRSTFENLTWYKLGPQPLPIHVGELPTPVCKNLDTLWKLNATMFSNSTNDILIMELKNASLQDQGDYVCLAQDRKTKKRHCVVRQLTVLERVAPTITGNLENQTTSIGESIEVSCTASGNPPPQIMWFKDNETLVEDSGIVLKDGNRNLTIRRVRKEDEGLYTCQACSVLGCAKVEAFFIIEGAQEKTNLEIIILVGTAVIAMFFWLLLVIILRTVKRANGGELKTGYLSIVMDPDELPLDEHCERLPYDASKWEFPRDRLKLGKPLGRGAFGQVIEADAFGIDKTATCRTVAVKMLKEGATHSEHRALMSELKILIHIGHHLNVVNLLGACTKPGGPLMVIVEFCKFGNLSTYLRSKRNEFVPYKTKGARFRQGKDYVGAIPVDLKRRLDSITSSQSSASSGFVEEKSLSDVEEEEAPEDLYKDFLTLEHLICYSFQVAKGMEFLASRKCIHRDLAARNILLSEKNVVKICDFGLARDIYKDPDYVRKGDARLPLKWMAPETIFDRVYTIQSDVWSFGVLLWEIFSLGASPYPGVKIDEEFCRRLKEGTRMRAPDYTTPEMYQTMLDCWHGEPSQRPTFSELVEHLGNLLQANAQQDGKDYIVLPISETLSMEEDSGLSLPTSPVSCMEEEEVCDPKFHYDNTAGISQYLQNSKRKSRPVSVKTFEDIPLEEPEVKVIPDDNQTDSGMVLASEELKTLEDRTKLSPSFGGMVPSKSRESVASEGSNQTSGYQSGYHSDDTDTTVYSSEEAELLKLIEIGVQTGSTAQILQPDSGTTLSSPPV

Take VEGF (from UniProt P15692): the Kd in the series with NRP1 (Homo sapiens) [1] is 0.312 nM; with α2MFAST (Homo sapiens), 420 nM; with VEGFR2 (Homo sapiens), 0.1 nM; with VEGFR1 (Homo sapiens), 0.033 nM; in the series with α2M (Homo sapiens), 4000 nM.

For sVEGFR1 soluble (from UniProt P17948), the dissociation constant (Kd) with NRP1 (Homo sapiens) [2] is 1.8 nM.
